According to the DeepSol protein solubility set:

Experiment: soluble on expression in E. coli; label from the status in PepcDB or PDB records
For “MAHHHHHHMQKLRADWTKHFDSEKASMTAFRDYDFERRVNDMRRLQNAVDHFDHAVRQGMMAMKEIASAYEAVGQAFTELTLTNNNPVPGPGEAEEPNPYPTEADVQYMSQPNAGAAAADYAASVASTRMPDEANSQVRRLAKTFAEEARRINEGPPFQSYNAGIHRDVHNRLLPVLEHLKSINEYRHKHIEALERYNKYKAEVEKVEKHYTKKGKPFCDSKGHKKYTEKRDEAWKEYITRRDKFNKTFGMLMEVNDHAAAQIIHRYLVLNHEYLQQLVASMDRVLPAMAEVYPLNNEYNSLQNTLILEAVANAKTPFADHSKIRSKQADSDKSDGAGDERHEDVQEAMDAHYEAQQSTLTSMSSDGGSNLASGSRLEDSVSYDAHVNPSTALESMEQPPDPEQDDV”, the “soluble on expression in E. coli” value was “soluble”. With “APTSSNDTGKTVVAVTACPTGIAHTYMAAEKLQETANKLGVRIKVETNGSRGVENRLTDKEIAEADGVIIAADVQVDMPRFDGKHLIAKPVAAGIHKPEELIKEAISGNAPVYKAESGSEATEST” the “soluble on expression in E. coli” value was “not soluble”. For “CIHSLKSEAIFFERTANFDGNTREKIIAMHVGYRIYARMEPVLSTCAIVAKTPWVLEKASPERLNELNRLEEEVISGADALVNNAVECGDLKFSPAIGADAIVFANWSIAFGSNALAQNASNSRCIQRIQDPFSVLHNANMLLDGLGWAPLSTEWDYRKTWRRVEQELFSEEIAYLETVNR”, the “soluble on expression in E. coli” value was “not soluble”. For “MAHHHHHHSLPIKIPDNLPAAKTLNEENIFFMDEDRAYHQDIRPLNIVIVNLMPTKIVTETQILRLIGNSPLQVNPTFIHTQTHKSQNTSKEHLIKFYETFEEIKNNKFDGMIVTGAPVETLSFENVDYWEELCRIFDWSVTNVTSTIHICWGAQAGLYHHYGIPKYELHEKLFGVFKHNLTERNIKLTRGFDDEFYAPHSRHTYVKREDIKKNPSLKILAESDEAGAYIVASENGKNIFVMGHAEYDGDTLNLEYIRDKNQGMNIKIPKNYFKDNDPEKGPMVTWRGHANLLFSNWLNYYVYQETPFELEG”, the “soluble on expression in E. coli” value was “soluble”. In the case of “MSLIPIDYLRASRKGREVRPRYLNDDKIASEVINMAKSAKTLGEFRNAVELISSDKKLVRGLAHVLEQLIEIEKIDSKLVTRTRLEVFKAASALGYPLTEEERERVFQTVAARLKMGVNEVKALFLKAYEENRLIVKAPDIQPKQLVEMYNLALIQALLFKSLYVKALLPNAPALLKGLIRAVKGLGLMYIVEINGGQLEFRFDGPVSALRQTERYGTRLAKLVPYITSAEKWEIEAQVKLGERIYVFKESGRTAPPLPKTPPHAEQFDSLVEQEFYKQVSKICHVEREPEALVVDGRVYIPDFKIGDLYVEIVGFWTPDYLKRKYEKITKVGKPLLVLVSEELAMATWKQLMPNVVVFKDRPRLSDVFKYIKPYCVNHREGHHHHHH”, the “soluble on expression in E. coli” value is reported as “not soluble”. For “MPLTQTQRLINTYGASLKNGTISNEELIILLDPNTFTKSEGYVDPNAPVSDSNHSKMDAIKDFVLTIGPTLDSEILHQLTSRMIELSPPGDRNTFMRGSSLEKAFLAFEMAHYPTKAEEHFNSTRVRTEFPGENDIDNLKAVILNPIIAFFQSPPGTDEKLEKLIKLCTDYKEHLKPSLTDDANNLVNKKHAIVTNMLAALTDSTAPNNATKIKNMEQILTEENKATLKDRRDSFSGARFLESILHILSLGIYSKLTKGTFKFWKSHGEALSDNIEEVSKQQPGMK”, the “soluble on expression in E. coli” value was “not soluble”. In the case of “MLRSTVIVTAHRRKAFIKDAIESVMENSLKPTEIIVVKNFKDYQIDSFLETYHVKNIYTDDETLGGKISLGIYQSSGDILFFLDDDDLFSKDKIREVIYKFSKYDIGFYHNAQEVIHNKLTGSNLSTDNQRFMYYTSIDTRRLKELLYKFKAGFNGSSIVISRDLAMRCVDLLKNVNISVDTFLLFCAVENNLPIMIDFRKLTYYRIIMSQNSNTEVNDKLFKMLYEDALYFKQIFSSKALRDFIEMSIIQHDFLYKIISKKEISKRDALISMVKMLRYSLKYPNKWNFFLQGLSLLSVFSAEKSRSLYLKKVRSNSMLSILEHHHHHH”, the “soluble on expression in E. coli” value is reported as “soluble”. For “MTNDNSGIWVLGYGSLIYKPPSHYTHRIPAIIHGFARRFWQSSTDHRGTPANPGRVATLIPYEDIIRQTAFLKNVNLYSESAPIQDPDDLVTIGVVYYIPPEHAQEVREYLNVREQNGYTLHEVEVHLETNREHEAELGEALEQLPRHNKSGKRVLLTSVYIGTIDNEAFVGPETVDETAKVIAVSHGPSGSNYEYLAKLEQALAQMPIMKERGRITDHYLTALLETVNKYR”, the “soluble on expression in E. coli” value was “soluble”. With “MPEIIGKLLKSDGKVVSEIEKQVSQALIDLETNDDVQSQLKELYIVGVKEVELGNKSAIIIYVPVPQLKAFHKIHPALVRELEKKFGGRDILILAKRRILPKPQRGSKARPQKQKRPRSRTLTAVHDAWLDELVYPAEVVGRRIRVKLDGKKVYKVHLDKSHQTNVGHKIGVFASVYRKLTGKDVTFEFPDPIF” the “soluble on expression in E. coli” value was “not soluble”. In the case of “MGSDKIHHHHHHMNNKPVVGISGCLTGATVRFDGGHKRMDFVMNSLAPWVAYKPICPEVAIGLPVPRPALRLIQTTCGDIRMRYSHAPHDDVTERMNAFADRFLPTIGELAGFIVCAKSPSCGMERVRLYDEKGNRGRKAGTGLFTAAMMDKYPWLPIEEDGRLHDPVLRENFIARIFALHELNALRAQGLSRHSLLAFHSRYKLQLLAHHQAGYREIGPFVARLHEWDDLDAFFVRYREKLMAILRHPASRKNHTNVLMHIQGYFHRALNSRQRAELREVILGYRAGRLPILAPLTLLKHYLAEHPDDYLRSQNYFEPYPDTLGLRLAIT”, the “soluble on expression in E. coli” value is reported as “not soluble”. In the case of “MILRASVLSALLLVGLGAAPKHSVSANDKRMQDNLVSVIEKQTNKKVRILEIKPLKSSQDLKMVVIEDPDTKYNIPLVVSKDGNLIIGLSNIFFSNKSDDVQLVAETNQKVQALNATQQNSAKLNAIFNEIPADYAIELPSTNAANKDKILYIVSDPMCPHCQKELTKLRDHLKENTVRMVVVGWLGVNSAKKAALIQEEMAKARARGASVEDKISILEKIYSTQYDINAQKEPEDLRTKVENTTKKIFESGVIKGVPFLYHYKA”, the “soluble on expression in E. coli” value is reported as “not soluble”. In the case of “MGSDKIHHHHHHMQFLDDSLHPENQDKVVITVAPYGPEWMPQDFPEDIPVTMEEQVQKAVDCYNAGATVLHLHVRELDGKGSKRLSKFNELIAGVRAAVPDMIIQVGGSISFAPEDDGQAAKWLSDDTRHMLADLDPKPDQVTVAINTTQMNIMELLYPEYLEGTSLSHPAYVEAYREMTVPAGPGWVEEHLRRLSNAGIQPHFQLTGIHAMETLERMVRAGKYKGPLNLTWIGIGGGFDGPNPFNFVNFVHRAPDGCTLTAESLLKNVLPFNMMAMAMGLHPRCGIEDTIIDQHGNRMTSVQQIEQCVRVARELGREIASGKEAREIYRIGTWYDSAEETLEAHGMAPNRKAGQKNLPLRKAA”, the “soluble on expression in E. coli” value is reported as “not soluble”. In the case of “MGSDKIHHHHHHMKVLLINGSPNQYGCTYTALNEITKVLSKHDIKTEILYLGKETIPGCISCASCFETGKCIRNDKVNELIEDLDNIDGIIIGSPVYFSSATGQLTSFLDRLFFIAGSRMATKLGASVVSCRRGGASATFDQLNKYFSISNMPIVSSQYWNQVHGFTPEDVMKDEEGLQTMRTLGENMAWLLKCISAGKKAGIKEPQYEETIMTNFIK”, the “soluble on expression in E. coli” value is reported as “not soluble”. With “TLANNRVRLLVNGEASFEAMFKAISAARQVILVQFFIVRDDALGQRLQQLLLERAANGVEVFFLYDAIGSHALPHRYVERLRQGGVQMHGFSTGSGMLNRFQVNFRNHRKVVVVDGECGFVGGHNVGVEYLGEKPPLAPWRDTHMELRGPAVACLQESFAEDWYWATHSLPPLILPPQYDSEGALCQVVASGPA” the “soluble on expression in E. coli” value was “not soluble”. For “MAEKTRYSDAELEEFRAIIMEKLELAQRDYDQLKMSLMGLDGNDTDDTSPTYKVLEEGANTLSKEETTRLAQRQLKFIQGLQAALVRIENKTYGICRETGKLIPAERLRAVPHATLSIEAKNSGKK”, the “soluble on expression in E. coli” value was “not soluble”. In the case of “MSVINCEEVKRDEFHTEKYYESYNIFGAHIVTEDEMRGVRFTVWAPHAKAMSVVGDFNEWDYEQHKMLQVTEEGIWSLFIPHIEEREIYKYAIETMAGDVIFKADPYAVYAEVRPNTASVVFDIKGYEWNDKNWSRKKKKKSVYKEAMTVYELHFGSWKKKEDGTLYSYREMAEELIPYVVEHQFTHIEIMPLVEHPYDRSWGYQGTGYYAATSRFGTPHDLMHFVDECHKYGIGVILDWVPGHFCKDAHGLYLFDGTPTYEYKDKDVQENPVWGTVNFDLGKREVRNFLISNALFWMRYFHIDGFRVDAVANMLYWNKEGQEQSNEHAVSFLRELNEAVFAEDEDFLMTAEDSTAWPLVTAPTYEGGLGFNYKWNMGWMNDVLKYMECAPEYRKYIHDKMTFSLLYAYSENFILPLSHDEVVHGKKSLLNKMPGDYWDKFAQLRLLYGYFFTHPGKKLLFMGGEFGQFDEWKDLEDLDWNLHDFEMHRYMHDYFKELIALYKRSKPLWQLDHSREGFQWIDANNNEQSIFSFIRQGDKQEDALVVVCNFTKATYENYKVGVPDFEYYNEVLNSDAEQYGGSGQVNKKRLKTFQEPYHNQTAHVEITIPPFGVSILRPVKTRKGSKKQDGSKTKVRSNVTSRGKR”, the “soluble on expression in E. coli” value is reported as “not soluble”. For “MASTNTNLQKAIDLASKAAQEDKAGNYEEALQLYQHAVQYFLHVVKYEAQGDKAKQSIRAKCTEYLDRAEKLKEYLKKKEKKPQKPVKEEQSGPVDEKGNDSDGEAESDDPEKKKLQNQLQGAIVIERPNVKWSDVAGLEGAKEALKEAVILPIKFPHLFTGKRTPWRGILLFGPPGTGKSYLAKAVATEANNSTFFSISSSDLVSKWLGESEKLVKNLFQLARENKPSIIFIDEIDSLCGSRSENESEAARRIKTEFLVQMQGVGVDNDGILVLGATNIPWVLDSAIRRRFEKRIYIPLPEAHARAAMFRLHLGSTQNSLTEADFQELGRKTDGYSGADISIIVRDALMQPVRKVQSATHFKKVRGPSRADPNCIVNDLLTPCSPGDPGAIEMTWMDVPGDKLLEPVVSMWDMLRSLSSTKPTVNEQDLLKLKKFTEDFGQEG”, the “soluble on expression in E. coli” value was “soluble”. In the case of “MGSDKIHHHHHHMHKTRYNALSVAFQISPRGPLLIKAGGISANPTLPDMQFVRTYHPYYGYTVYIPGSSLKGVVRGFVEKALRTLDDHTSWQWACPTFPDEDESCAKKLGKEENSATIYKNSCGACRLFGHTRLKGRVAFTDLLPVDEVKTEIRYGVAISRLSHAVAHGPFEMEVAVAGTFEGYLILENFELWQLGLLVLAFQGMNSGLLQIGFGKNRGFGEVAVQVQEARLDEVTSGMEIGLWRGLADFVSDEEKTRYGLSTTFTLNGMPDPLRTEPLGLYTRRIYDPKRWDEVAQRVTDKLGTT”, the “soluble on expression in E. coli” value is reported as “not soluble”. For “MDWRHKAVCRDEDPELFFPVGNSGPALAQIADAKLVCNRCPVTTECLSWALNTGQDSGVWGGMSEDERRALKRRNARTKARTGV”, the “soluble on expression in E. coli” value was “not soluble”. For “MSLVVEHNPFAKRYRKGMKRIALVYPNRYVGGITNLGLQYIYARINESDAICERFYADVFDGLRSIESATPLSEFDVALFSLQYETDYFKAVEILKRSGFKGLKIAGGPCVMENPQPLMDYFHAFFIGEVEGYVEELIHAKNAEELSGIPGVFTGREEKVKRVYAKLDRHIEKEIIGEGAYGRCFLLEIGRGCVRRCRFCIVRQIYFPPRWRKKEMLPEIGEEKVAIIAPSPSDHPQFKEILQHYVEQGKEVSPSSVRADTLDEELADLLKKAGVKTLTIAPETASDKLQEVINKGIGDEEVMRAAELASTRFEKVKLYYMVGLPGESFEDVKAILEQALRVKKLVGKVEISVNPLVPKPHTPLQWMGFGGEEELREGISHLKKKLEYLRREARRAGIGADVSGFKEFAIQTILSRGDREVAEMLEGASYRKFEKYLKPINPDSPLPWDFIDHGYRKSTLLKEYDKIKKILEGHHHHHH”, the “soluble on expression in E. coli” value was “not soluble”.
